# Experimental data: PMC8568338 (Cell reports, 2021)
# B1: Strep-tagged VP40[change] (VP40 truncated after residue 194) (domain or fragment)
# chain: MRRVILPTAPPEYMEAIYPVRSNSTIARGGNSNTGFLTPESVNGDTPSNPLRPIADDTIDHASHTPGSVSSAFILEAMVNVISGPKVLMKQIPIWLPLGVADQKTYSFDSTTAAIMLASYTITHFGKATNPLVRVNRLGPGIPDHPLRLLRIGNQAFLQEFVLPPVQLPQYFTFDLTALKLITQPLPAATWTDD
# Molecular target: the molecule itself
# Experiment: native gel or EMSA
protein,measurement,value
B1,stoichiometry N,8
